According to patent US20260049138A1 (Chugai, published 2026):
Numbering of substitutions follows the chain as printed. In names and notes the source's numbering stands.

B1: GLS3000 H34M one-arm antibody (antibody, human IgG1, kappa, L234A L235A, N297A, name in Kabat numbering)
heavy: QVQLVESGGGVVQPGRSLRLSCAASGFTFSNAWMHWVRQAPGKGLEWVAQIKAKSNNYATYYAESVKGRFTISRDDSKNSLYLQMNSLKTEDTAVYYCRYVHYGAYYGVDAWGQGTTVTVSSASTKGPSVFPLAPSSKSTSGGTAALGCLVKDYFPEPVTVSWNSGALTSGVHTFPAVLQSSGLYSLSSVVTVPSSSLGTQTYICNVNHKPSNTKVDKKVEPKSCDKTHTCPPCPAPEAAGGPSVFLFPPKPKDTLMISRTPEVTCVVVDVSHEDPEVKFNWYVDGVEVHNAKTKPREEQYASTYRVVSVLTVLHQDWLNGKEYKCKVSNKALPAPIEKTISKAKGQPREPQVYTLPPSRCELTKNQVSLSCAVKGFYPSDIAVEWESNGQPENNYKTTPPVLDSDGSFFLVSKLTVDKSRWQQGNVFSCSVMHEALHNHYTQKSLSLSPDYKDDDDK
chain: EPKSSDKTHTCPPCPAPELLGGPSVFLFPPKPKDTLMISRTPEVTCVVVDVSHEDPEVKFNWYVDGVEVHNAKTKPREEQYNSTYRVVSVLTVLHQDWLNGKEYKCKVSNKALPAPIEKTISKAKGQPREPQVCTLPPSRDELTKNQVSLWCLVKGFYPSDIAVEWESNGQPENNYKTTPPVLDSDGSFFLYSKLTVDKSRWQQGNVFSCSVMHEALHNRYTQKSLSLSP
light: DIVMTQSPLSLPVTPGEPASISCRSSQSLVHSNRNTYLMWYQQKPGQAPRLLIYKVSNRFSGVPDRFSGSGSGTDFTLKISRVEAEDVGVYYCGQGTQVPYTFGQGTKLEIKRTVAAPSVFIFPPSDEQLKSGTASVVCLLNNFYPREAKVQWKVDNALQSGNSQESVTEQDSKDSTYSLSSTLTLSKADYEKHKVYACEVTHQGLSSPVTKSFNRGEC
B2: GLS3000 K50G one-arm antibody (antibody, human IgG1, kappa, L234A L235A, N297A, name in Kabat numbering)
heavy: B1 heavy
chain: B1 chain
light: B1 light with M39H, K55G
B3: GLS3000 L27bI one-arm antibody (antibody, human IgG1, kappa, L234A L235A, N297A, name in Kabat numbering)
heavy: B1 heavy
chain: B1 chain
light: B1 light with L29I, M39H
B4: GLS3000 K74T one-arm antibody (antibody, human IgG1, kappa, L234A L235A, N297A, name in Kabat numbering)
heavy: B1 heavy
chain: B1 chain
light: B1 light with M39H, K79T
B5: GLS3000 K50L one-arm antibody (antibody, human IgG1, kappa, L234A L235A, N297A, name in Kabat numbering)
heavy: B1 heavy
chain: B1 chain
light: B1 light with M39H, K55L
B6: GLS3000 K50T one-arm antibody (antibody, human IgG1, kappa, L234A L235A, N297A, name in Kabat numbering)
heavy: B1 heavy
chain: B1 chain
light: B1 light with M39H, K55T
B7: GLS3000 H34T one-arm antibody (antibody, human IgG1, kappa, L234A L235A, N297A, name in Kabat numbering)
heavy: B1 heavy
chain: B1 chain
light: B1 light with M39T
B8: GLS3000 L27bS one-arm antibody (antibody, human IgG1, kappa, L234A L235A, N297A, name in Kabat numbering)
heavy: B1 heavy
chain: B1 chain
light: B1 light with L29S, M39H
B9: GLS3000 K50P one-arm antibody (antibody, human IgG1, kappa, L234A L235A, N297A, name in Kabat numbering)
heavy: B1 heavy
chain: B1 chain
light: B1 light with M39H, K55P
B10: GLS3000 L27bV one-arm antibody (antibody, human IgG1, kappa, L234A L235A, N297A, name in Kabat numbering)
heavy: B1 heavy
chain: B1 chain
light: B1 light with L29V, M39H
B11: GLS3000 H34Q one-arm antibody (antibody, human IgG1, kappa, L234A L235A, N297A, name in Kabat numbering)
heavy: B1 heavy
chain: B1 chain
light: B1 light with M39Q
B12: GLS3000 K50S one-arm antibody (antibody, human IgG1, kappa, L234A L235A, N297A, name in Kabat numbering)
heavy: B1 heavy
chain: B1 chain
light: B1 light with M39H, K55S
B13: GLS3000 H34P one-arm antibody (antibody, human IgG1, kappa, L234A L235A, N297A, name in Kabat numbering)
heavy: B1 heavy
chain: B1 chain
light: B1 light with M39P
B14: GLS3000 L27bP one-arm antibody (antibody, human IgG1, kappa, L234A L235A, N297A, name in Kabat numbering)
heavy: B1 heavy
chain: B1 chain
light: B1 light with L29P, M39H
B15: GLS3000 L27bY one-arm antibody (antibody, human IgG1, kappa, L234A L235A, N297A, name in Kabat numbering)
heavy: B1 heavy
chain: B1 chain
light: B1 light with L29Y, M39H
B16: GLS3000 K50E one-arm antibody (antibody, human IgG1, kappa, L234A L235A, N297A, name in Kabat numbering)
heavy: B1 heavy
chain: B1 chain
light: B1 light with M39H, K55E
B17: GLS3000 H34W one-arm antibody (antibody, human IgG1, kappa, L234A L235A, N297A, name in Kabat numbering)
heavy: B1 heavy
chain: B1 chain
light: B1 light with M39W
B18: GLS3000 K50A one-arm antibody (antibody, human IgG1, kappa, L234A L235A, N297A, name in Kabat numbering)
heavy: B1 heavy
chain: B1 chain
light: B1 light with M39H, K55A
B19: GLS3000 H34N one-arm antibody (antibody, human IgG1, kappa, L234A L235A, N297A, name in Kabat numbering)
heavy: B1 heavy
chain: B1 chain
light: B1 light with M39N
B20: GLS3000 K50Y one-arm antibody (antibody, human IgG1, kappa, L234A L235A, N297A, name in Kabat numbering)
heavy: B1 heavy
chain: B1 chain
light: B1 light with M39H, K55Y
B21: GLS3000 L33A one-arm antibody (antibody, human IgG1, kappa, L234A L235A, N297A, name in Kabat numbering)
heavy: B1 heavy
chain: B1 chain
light: B1 light with L38A, M39H
B22: GLS3000 H34Y one-arm antibody (antibody, human IgG1, kappa, L234A L235A, N297A, name in Kabat numbering)
heavy: B1 heavy
chain: B1 chain
light: B1 light with M39Y
B23: GLS3000 H34R one-arm antibody (antibody, human IgG1, kappa, L234A L235A, N297A, name in Kabat numbering)
heavy: B1 heavy
chain: B1 chain
light: B1 light with M39R
B24: GLS3000 H34S one-arm antibody (antibody, human IgG1, kappa, L234A L235A, N297A, name in Kabat numbering)
heavy: B1 heavy
chain: B1 chain
light: B1 light with M39S
B25: GLS3000 K50D one-arm antibody (antibody, human IgG1, kappa, L234A L235A, N297A, name in Kabat numbering)
heavy: B1 heavy
chain: B1 chain
light: B1 light with M39H, K55D
B26: GLS3000 K50R one-arm antibody (antibody, human IgG1, kappa, L234A L235A, N297A, name in Kabat numbering)
heavy: B1 heavy
chain: B1 chain
light: B1 light with M39H, K55R
B27: GLS3000 L27bF one-arm antibody (antibody, human IgG1, kappa, L234A L235A, N297A, name in Kabat numbering)
heavy: B1 heavy
chain: B1 chain
light: B1 light with L29F, M39H
B28: GLS3000 L27bE one-arm antibody (antibody, human IgG1, kappa, L234A L235A, N297A, name in Kabat numbering)
heavy: B1 heavy
chain: B1 chain
light: B1 light with L29E, M39H
B29: GLS3000 L27bW one-arm antibody (antibody, human IgG1, kappa, L234A L235A, N297A, name in Kabat numbering)
heavy: B1 heavy
chain: B1 chain
light: B1 light with L29W, M39H
B30: GLS3000 K107E one-arm antibody (antibody, human IgG1, kappa, L234A L235A, N297A, name in Kabat numbering)
heavy: B1 heavy
chain: B1 chain
light: B1 light with M39H, K112E
B31: GLS3000 L27bD one-arm antibody (antibody, human IgG1, kappa, L234A L235A, N297A, name in Kabat numbering)
heavy: B1 heavy
chain: B1 chain
light: B1 light with L29D, M39H
B32: GLS3000 H34V one-arm antibody (antibody, human IgG1, kappa, L234A L235A, N297A, name in Kabat numbering)
heavy: B1 heavy
chain: B1 chain
light: B1 light with M39V
B33: GLS3000 L27bM one-arm antibody (antibody, human IgG1, kappa, L234A L235A, N297A, name in Kabat numbering)
heavy: B1 heavy
chain: B1 chain
light: B1 light with L29M, M39H
B34: GLS3000 K50Q one-arm antibody (antibody, human IgG1, kappa, L234A L235A, N297A, name in Kabat numbering)
heavy: B1 heavy
chain: B1 chain
light: B1 light with M39H, K55Q

These binders were tested against T1, CD3ε homodimer protein (human, UniProt P07766 23-126, limits assumed) (assay: SPR Biacore T200, CD3ε homodimer on chip;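 note: Light-chain single-residue variant antibodies injected over amine-coupled CD3ε homodimer on a CM4 chip at 25 °C, bound amount divided by that of the GLS3000-containing antibody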).
T1 construct: also called CD3 (CD3ε)
T1 sequence (P07766 23-126 limits assumed): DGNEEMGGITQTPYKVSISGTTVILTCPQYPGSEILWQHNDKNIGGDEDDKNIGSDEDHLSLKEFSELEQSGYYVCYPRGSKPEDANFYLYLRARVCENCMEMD

Row | ratio of amount bound vs unaltered GLS3000 | Binder
1 | 0.35 | B1
2 | 0.16 | B2
3 | 1.19 | B3
4 | 0.84 | B4
5 | 0.24 | B5
6 | 0.19 | B6
7 | 0.89 | B7
8 | 0.71 | B8
9 | 0.3 | B9
10 | 1.12 | B10
11 | 0.25 | B11
12 | 0.23 | B12
13 | 0.34 | B13
14 | 0.91 | B14
15 | 0.25 | B15
16 | 0.24 | B16
17 | 0.24 | B17

Row | ratio of amount bound vs unaltered GLS3000 | Binder
18 | 0.23 | B18
19 | 0.65 | B19
20 | 0.24 | B20
21 | 0.85 | B21
22 | 0.59 | B22
23 | 0.2 | B23
24 | 0.78 | B24
25 | 0.22 | B25
26 | 0.5 | B26
27 | 0.42 | B27
28 | 0.17 | B28
29 | 0.26 | B29
30 | 0.94 | B30
31 | 0.17 | B31
32 | 0.85 | B32
33 | 0.71 | B33
34 | 0.18 | B34
